In patent US20240024426A1, “HYPOTENSIVE PHARMACEUTICAL COMPOSITION COMPRISING TRIPLE ACTIVATOR HAVING ACTIVITY FOR ALL OF GLUCAGON, GLP-1, AND GIP RECEPTORS” (HANMI PHARM. CO., LTD., priority 2020, published 2024):
Bridges are numbered along the chain shown (N, C = ends). Where no end group is shown, it is not given here. [ ]: non-standard residue; d: D form. The star is where a group is joined. Acetyl(2-(4-imidazolyl)) = O=C(Cc1c[nH]cn1)*; Aib = CC(C)(N)C(=O)O

Key:
Assay in all cases: cell-based or functional assay
human GLP-1 receptor = human GLP-1 receptor (human, UniProt P43220 24-463)
human GCG receptor = human GCG receptor (human, UniProt P47871 26-477)
human GCG receptor, sequence (P47871 26-477): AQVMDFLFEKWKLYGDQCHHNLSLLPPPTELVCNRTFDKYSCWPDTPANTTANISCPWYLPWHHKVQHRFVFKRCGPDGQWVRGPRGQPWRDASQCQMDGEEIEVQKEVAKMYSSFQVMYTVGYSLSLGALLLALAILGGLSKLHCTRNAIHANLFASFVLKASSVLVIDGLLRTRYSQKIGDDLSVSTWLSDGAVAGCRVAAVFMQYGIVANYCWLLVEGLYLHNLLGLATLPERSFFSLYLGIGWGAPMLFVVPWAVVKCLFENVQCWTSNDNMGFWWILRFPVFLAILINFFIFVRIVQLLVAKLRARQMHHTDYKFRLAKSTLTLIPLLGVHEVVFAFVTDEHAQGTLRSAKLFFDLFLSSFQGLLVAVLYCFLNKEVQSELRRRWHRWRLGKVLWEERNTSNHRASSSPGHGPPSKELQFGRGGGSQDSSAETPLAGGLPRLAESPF

human GIP receptor = target: T1, human GIP receptor (human, UniProt P48546 22-466)
T1 sequence (looked up): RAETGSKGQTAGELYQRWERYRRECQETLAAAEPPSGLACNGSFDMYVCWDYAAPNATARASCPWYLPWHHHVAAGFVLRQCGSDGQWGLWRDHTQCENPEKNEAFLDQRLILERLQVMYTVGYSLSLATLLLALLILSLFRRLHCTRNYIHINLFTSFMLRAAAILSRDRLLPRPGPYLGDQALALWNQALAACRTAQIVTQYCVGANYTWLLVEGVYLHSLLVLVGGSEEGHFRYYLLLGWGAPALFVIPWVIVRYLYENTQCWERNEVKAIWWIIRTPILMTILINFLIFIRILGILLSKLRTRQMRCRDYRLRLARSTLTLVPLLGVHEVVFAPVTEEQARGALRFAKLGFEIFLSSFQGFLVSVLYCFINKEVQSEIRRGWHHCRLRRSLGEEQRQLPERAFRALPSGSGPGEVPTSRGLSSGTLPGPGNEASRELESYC

| Binder | In vitro activity compared with native peptide (%) vs. GLP-1 (human GLP-1 receptor) | In vitro activity compared with native peptide (%) vs. Glucagon (human GCG receptor) | In vitro activity compared with native peptide (%) vs. GIP (human GIP receptor) |
| --- | --- | --- | --- |
| H[Aib]QGTFTSDYSIAMDEIHQKDFVNWLLAQKC (bridge 16-20) [Triple agonist of SEQ ID NO: 33] | 24.5% | < 0.1% | 10.4% |
| Y[Aib]QGTFTSDYSKYLDECRAKEFVQWLLDHHPSSGQPPPS (bridge 16-20) [Triple agonist of SEQ ID NO: 21] | 17.8% | 267% | 22.7% |
| {Acetyl(2-(4-imidazolyl))}-GQGTFTSDLSKQMDSEAQQLFIEWLKNGGPSSGAPPPSHG [Triple agonist of SEQ ID NO: 16] | 2.1% | < 0.1% | < 0.1% |
| Y[Aib]QGTFTSDYSKYLDECRAKEFVQWLKNGGPSSGAPPPS (bridge 16-20) [Triple agonist of SEQ ID NO: 24] | 41.2% | 9.3% | < 0.1% |
| H[Aib]QGTFTSDYSKYLDERACQDFVQWLLDQGGPSSGAPPPS [Triple agonist of SEQ ID NO: 27] | 83.1% | 0.8% | 0.9% |
| [Acetyl(2-(4-imidazolyl))]GQGTFTSDLSIQYEEEAQQDFVEWLKDTGPSSGAPPPSHG [Triple agonist of SEQ ID NO: 20] | < 0.1% | < 0.1% | < 0.1% |
| H[Aib]QGTFTSDYSKYLDEKACKEFVQWLLAQ (bridge 16-20) [Triple agonist of SEQ ID NO: 31] | 135% | 2.2% | 2.4% |
| H[Aib]QGTFTSDYSKYLDEKAQKEFVQWLLDTC (bridge 16-20) [Triple agonist of SEQ ID NO: 30] | 142% | 0.7% | 0.8% |
| H[Aib]QGTFTSDYSKYLDEKRAQEFVCWLLAQKGKKNDWKHNIT [Triple agonist of SEQ ID NO: 28] | 17.2% | 1.6% | < 0.1% |
| Y[Aib]QGTFTSDYSKYLDECRAKEFVQWLLAQKGKKNDWKHNIT (bridge 16-20) [Triple agonist of SEQ ID NO: 23] | 4.01% | 9.3% | < 0.1% |
| {Acetyl(2-(4-imidazolyl))}-GQGTFTSDLSKQMDEERAREFIEWLLAQKPSSGAPPPSHG [Triple agonist of SEQ ID NO: 17] | 0.2% | < 0.1% | < 0.1% |
| [Acetyl(2-(4-imidazolyl))]GQGTFTSDLSIQYDSEHQRDFIEWLKDTGPSSGAPPPSHG [Triple agonist of SEQ ID NO: 19] | < 0.1% | < 0.1% | < 0.1% |
| H[Aib]QGTFTSDVSSYLLGQAAKQFIAWLVKGGGPSSGAPPPSC [Triple agonist of SEQ ID NO: 3] | 1.8% | < 0.1% | < 0.1% |
| H[Aib]QGTFTSDCSKYLDSRAAQDFVQWLLDGGPSSGAPPPS [Triple agonist of SEQ ID NO: 26] | 64.5% | 0.2% | < 0.1% |
| H[Aib]QGTFTSDYSKYLDEKAAKEFVQWLLNTC (bridge 16-20) [Triple agonist of SEQ ID NO: 29] | 38.5% | 6% | < 0.1% |
| Y[Aib]QGTFTSDYSKCLDEKRAKEFVQWLLDHHPSSGQPPPS (bridge 16-20) [Triple agonist of SEQ ID NO: 22] | 20.1% | 140% | 59.7% |
| H[Aib]QGTFTSDYSKYLDEKACKDFVQWLLDGGPSSGAPPPS (bridge 16-20) [Triple agonist of SEQ ID NO: 32] | 151% | 1.7% | 8.8% |
| H[Aib]QGTFTSDCSKYLDERAAQDFVQWLLDGGPSSGAPPPS [Triple agonist of SEQ ID NO: 25] | 82.6% | 0.1% | < 0.1% |
| [Acetyl(2-(4-imidazolyl))]GQGTFTSDLSKQMDSERAREFIEWLKNTGPSSGAPPPSHG [Triple agonist of SEQ ID NO: 18] | < 0.1% | < 0.1% | < 0.1% |
